Consider three molecules from patent US20240376205A1 (Hoffmann-La Roche, published 2024).

Assay [1] has as its target T1, OneArmed-huPD-L1_ECD_Fc_LALAPG (P1AF6937) (human, UniProt Q9NZQ7 18-238).
T1 construct: range 18-238; also called huPD-L1-Fc; huPD-L1(ECD)-huFc
The assay is described as follows: SPR, Dutaflip Fab fragment without IFN-α2 fusion, analyte P1AF6937.

Assay [2] deals with T1, OneArmed-huPD-L1_ECD_Fc_LALAPG …. The assay is described as follows: SPR, Fab fragment, as in Example 2 a).
Assay [3] has as its target T2, OneArmed-cyPD-L1_ECD_Fc_LALAPG_avi_his (P1AF6938) (cynomolgus).
T2 construct: also called cynomolgus PD-L1-Fc; cynoPD-L1 (ECD)-huFc
The assay is described as follows: SPR, Fab fragment, as in Example 2 a).

B1: Dutaflip Fab fragment of P1AH1108 (Fab, V domains shown)
VH: MSQLVESGGGLVQPGGSLRLSCAANNDIEFNAMSWVRQAPGKGLEWVGSISPKGGSKSIHRKFQGRFTISRDNSKNTLYLQMNSLRAEDTAVYYCARDLGFMDIWGQGTLVTVSS
VL: KTQMTQSPSSLSASVGDRVTITCDGTYGISNELAWYQQKPGKAPKLLIYDGEYHDFDVPSRFSGSGSGSDFTLTISSLQPEDFATYYCQQYGNWPHTFGQGTKVEIK
notes: Dutaflip Fab fragment without IFN-α2 fusion, expressed in E. coli
In turn, B1 showed a Kd in assay [1] of 6 nM.

B2: anti-huPD-L1 M14 Fab (P1AI3438) (Fab, V domains shown)
VH: MTQLVESGGGLVQPGGSLRLSCAADHTTEYNAMSWVRQAPGKGLEWVSAISGSGGSTYYADSVKGRFTISRDNSKNTLYLQMNSLRAEDTAVYYCARDLGFMDVWGQGTLVTVSS
VL: DIQMTQSPSSLSASVGDRVTITCRASQSISSYLNWYQQKPGKAPKLLIYDASYHEFGVPSRFSGSGSGTDFTLTISSLQPEDFATYYCQQSYSTPWTFGQGTKVEIK
notes: Tested as Fab fragment
Regarding B2, in assay [2], the Kd is 0.6 nM, the koff stood at 0.00012 s⁻¹ and the on-rate (kon) came to 200000 M⁻¹ s⁻¹. Further, in assay [3], the affinity, expressed as Kd, was 0.9 nM; the koff was 0.00015 s⁻¹; the kon was 160000 M⁻¹ s⁻¹.

B3: Dutaflip Fab fragment of P1AH1111 (DutaFab E06P07) (Fab, V domains shown)
VH: ARQLVESGGGLVQPGGSLRLSCAASGFHFEEQAMSWVRQAPGKGLEWVGSISPKGGSKSLNRNFNGRFTISRDNSKNTLYLQMNSLRAEDTAVYYCAKDIGFMDGWGQGTLVTVSS
VL: YQMTQSPSSLSASVGDRVTITCHGHVFISNYLAWYQQKPGKAPKLLIYDGEWRDFGVPSRFSGSGSDDSFTLTISSLQPEDFATYYCQQYSNWPHTFGQGTKVEIK
notes: Fab fragment without IFN-α2 fusion, expressed in E. coli
For B3, in assay [1], the affinity, expressed as Kd, was 37 nM.
